Source: patent publication US20100061996A1
Values belong to the substance of their own block, whether it stands above or below them.

Assays:
Assay in all cases: cell-based or functional assay
[1] = target: full-length hepsin on the surface of LnCaP-34 cells (transfected full-length hepsin with C-terminal Flag tag plus endogenous hepsin) (human) (UniProt P05981)
[2] = target: endogenous full-length hepsin on the surface of LnCaP-17 cells (human) (UniProt P05981)
[3] = target: pro-uPA (pro-urokinase-type plasminogen activator, single-chain zymogen form of uPA) (UniProt P00749)

endogenous full-length hepsin on the surface of LnCaP-17 cells (human), sequence (P05981 whole entry): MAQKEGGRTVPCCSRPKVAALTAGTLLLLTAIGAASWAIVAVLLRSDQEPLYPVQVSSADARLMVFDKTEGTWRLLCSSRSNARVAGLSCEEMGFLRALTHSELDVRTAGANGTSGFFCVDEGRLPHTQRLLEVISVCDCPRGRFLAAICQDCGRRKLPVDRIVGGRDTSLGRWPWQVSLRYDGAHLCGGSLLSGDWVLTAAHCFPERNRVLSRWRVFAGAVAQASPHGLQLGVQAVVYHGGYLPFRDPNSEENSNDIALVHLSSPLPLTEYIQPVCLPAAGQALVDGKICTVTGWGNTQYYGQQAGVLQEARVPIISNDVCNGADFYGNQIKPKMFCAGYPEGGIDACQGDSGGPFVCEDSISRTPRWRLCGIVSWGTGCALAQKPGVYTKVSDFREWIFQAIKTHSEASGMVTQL
full-length hepsin on the surface of LnCaP-34 cells (transfected full-length hepsin with C-terminal Flag tag plus endogenous hepsin) (human), sequence (P05981 whole entry): as above

Rate of pro-uPA activation per 10^6 cells, LnCaP-34, with 1 uM KD1 [1]: 0.2 nM uPA hr^-1 | Rate of pro-uPA activation per 10^6 cells, LnCaP-17, with 1 uM KD1 [2]: 0.2 nM uPA hr^-1
Substance: KD1, Kunitz domain-1 derived from HAI-1B (from UniProt O43278 246-303)

Rate of pro-uPA activation per 10^6 cells, LnCaP-17, control [3]: 2.4 nM uPA hr^-1
Substance: endogenous full-length hepsin on the surface of LnCaP-17 cells (from UniProt P05981 1-417) (enzyme)

Rate of pro-uPA activation per 10^6 cells, LnCaP-34, control [3]: 6.6 nM uPA hr^-1
Substance: full-length hepsin on the surface of LnCaP-34 cells (transfected full-length hepsin with C-terminal Flag tag plus endogenous hepsin) (from UniProt P05981 1-417) (enzyme)
